# Laboratory results taken from patent publication US20240327526A1 (Amgen, published 2024).
# B1: Anti-ActRIIB human IgG R31-1 (antibody, V domains shown)
# VH: EVQLLESGGGLVQPGGSLRLSCAASGFTFRNYAMSWVRQAPGKGLEWVSGISVTGGSTYYTDSVKGRFTVSRDNSRNTLYLQMNSLRAEDTAVYYCAKVYYSSFFDYWGQGTLVTVSS
# VL: QTVVTQEPSFSVSPGGTVTLTCGFNSGSVSTSYYPSWYQQTPGQAPRTLIYNTNTRSSGVPDRFSGSILGNKAALTITGAQADDESDYYCVLYMGSGIWVFGGGTKLTVLG
# notes: Human IgG2/kappa from Xenomouse immunization with ActRIIB-huFc; also called parental 31-1; parental molecule R31-1
# B2: M37 (antibody, human IgG2, lambda, V domains shown)
# VH: EVQLLESGGGLVQPGGSLRLSCAASGFTFRNYAMAWVRQAPGKGLEWVSGISVTGGSTFYTDSVKGRFTVSRDNSRNTLYLQMNSLRAEDTAVYYCAKVYYTSFFDYWGQGTLVTVSS
# VL: QTVVTQEPSFSVSPGGTVTLTCGFNSGSVSTSYYPSWYQQTPGQAPRTLIYNTNTRSSGVPDRFSGSILGNKAALTITGAQADDESDYYCVLWMGSGIWVFGGGTKLTVLG
# B3: M25 (antibody, human IgG2, lambda, V domains shown)
# VH: EVQLLESGGGLVQPGGSLRLSCAASGFTFRNSAMSWVRQAPGKGLEWVSAISVTGGSTYYTDSVKGRFTVSRDNSRNTLYLQMNSLRAEDTAVYYCAKVYYYSFFDYWGQGTLVTVSS
# VL: QTVVTQEPSFSVSPGGTVTLTCGFNSGSVSTSYYPSWYQQTPGQAPRTLIYNTNTRSSGVPDRFSGSILGNKAALTITGAQADDESDYYCVLYMGSGIHVFGGGTKLTVLG
# B4: M43 (antibody, human IgG2, lambda, V domains shown)
# VH: EVQLLESGGGLVQPGGSLRLSCAASGFTFRNSAMSWVRQAPGKGLEWVSGISVTGGSTFYTDSVKGRFTVSRDNSRNTLYLQMNSLRAEDTAVYYCAKVYYYSFFDYWGQGTLVTVSS
# VL: QTVVTQEPSFSVSPGGTVTLTCGFNSGSVSTSYWPSWYQQTPGQAPRTLIYNTNTRSSGVPDRFSGSILGNKAALTITGAQADDESDYYCVLWMGSGIWVFGGGTKLTVLG
# notes: fully human
# What was measured:
# [1] = target: T1, activin type IIB receptor (ActRIIB) on C2C12/pMARE-luc cells co-transfected with ALK4 (Homo sapiens (Human), UniProt Q13705 19-134); assay: cell-based or functional assay
# T1 chain: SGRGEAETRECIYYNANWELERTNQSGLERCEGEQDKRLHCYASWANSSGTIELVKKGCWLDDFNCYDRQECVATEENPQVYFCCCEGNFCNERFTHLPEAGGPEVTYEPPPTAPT
# [2] = target: activin type IIA receptor (ActRIIA) on C2C12/pMARE-luc cells co-transfected with ALK4 (Homo sapiens (Human), UniProt P27037 20-513); assay: cell-based or functional assay
# activin type IIA receptor (ActRIIA) on C2C12/pMARE-luc cells co-transfected with ALK4, sequence (P27037 20-513): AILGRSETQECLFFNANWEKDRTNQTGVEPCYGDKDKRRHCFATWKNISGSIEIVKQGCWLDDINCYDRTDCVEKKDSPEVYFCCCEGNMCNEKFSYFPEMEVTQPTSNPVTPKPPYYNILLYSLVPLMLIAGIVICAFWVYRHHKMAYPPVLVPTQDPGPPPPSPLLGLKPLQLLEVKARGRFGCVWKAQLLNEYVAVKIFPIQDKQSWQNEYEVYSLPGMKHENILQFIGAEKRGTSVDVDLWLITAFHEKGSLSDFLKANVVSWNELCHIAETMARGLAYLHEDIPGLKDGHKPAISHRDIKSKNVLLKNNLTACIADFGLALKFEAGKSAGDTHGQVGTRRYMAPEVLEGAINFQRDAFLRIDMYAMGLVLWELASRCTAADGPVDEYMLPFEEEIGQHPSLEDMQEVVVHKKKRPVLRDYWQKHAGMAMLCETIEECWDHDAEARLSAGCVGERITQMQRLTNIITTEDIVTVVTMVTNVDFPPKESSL
# [3] = target: T2, ActRIIA-huFc (human); assay: binding affinity, method not stated
# T2 construct: Used biotinylated in the ELISA screens; also called huActRIIA-huFc; biotin-ActRIIA-huFc
# T2 sequence (chain, as listed by the source limits assumed): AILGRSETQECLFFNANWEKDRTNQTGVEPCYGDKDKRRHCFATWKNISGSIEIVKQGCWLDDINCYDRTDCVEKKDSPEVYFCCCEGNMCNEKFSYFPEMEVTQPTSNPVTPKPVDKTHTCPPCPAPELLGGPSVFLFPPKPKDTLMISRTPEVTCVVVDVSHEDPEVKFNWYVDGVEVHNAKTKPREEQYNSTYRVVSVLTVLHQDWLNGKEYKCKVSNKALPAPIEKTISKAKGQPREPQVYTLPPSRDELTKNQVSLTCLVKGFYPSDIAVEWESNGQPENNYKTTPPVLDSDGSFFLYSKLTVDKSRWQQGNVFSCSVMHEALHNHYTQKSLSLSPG
# [4] = target: T2, ActRIIA-huFc; assay: BIAcore
# [5] = target: T2, ActRIIA-huFc; assay: KinExA
Binder,"Cell-Based IC50, ActRIIB Signaling (luciferase reporter, C2C12/pMARE-luc cells with ActRIIB + ALK4, 4 nM myostatin or activin) [1]","Cell-Based IC50, ActRIIA Signaling (luciferase reporter, C2C12/pMARE-luc cells with ActRIIA + ALK4, 4 nM myostatin or activin) [2]",Kd [3],Kd [4],Kd [5],fold improvement of affinity over the parental molecule R31-1 [5]
B1,8 nM,2 nM,~1000 pM,4000 pM,–,–
B2,–,–,–,–,< 1 pM,≥ 1000 fold
B3,–,–,–,–,< 1 pM,≥ 1000 fold
B4,2 nM,–,–,1 pM,< 1 pM,≥ 1000 fold
